US9804152B1, “Human ex vivo skin model and its use in methods of identifying modulators of skin inflammation” (The Procter & Gamble Company, priority 2012, dated 2017)
Marks after values point to notes of the source that are not given here.

Columns and labels:
Type in all cases: cell-based
[1] = tested on: ex vivo human skin sample; experiment: Inducers of inflammation: inflammation marker gene expression in ex vivo skin samples (PCR); conditions: for CALML5 Up-Down Regulation (relative to control) / DEFB4 Up-Down Regulation (relative to control) / FLG Up-Down Regulation (relative to control) / IL-6 Up-Down Regulation (relative to control) / IL-8 Up-Down Regulation (relative to control) / KRT6A Up-Down Regulation (relative to control) / KRT10 Up-Down Regulation (relative to control) / S100A7 Up-Down Regulation (relative to control) / TNF-α Up-Down Regulation (relative to control): IL-17 or IL-22 alone, 96 hours
Source text: (§1) This Example describes the materials and methods used in preparing ex vivo skin samples for use according to the methods disclosed herein. Materials used in preparation of ex vivo skin samples for use in the disclosed screening methods included: Dulbecco's Modified Eagle Medium (DMEM) plus Glutamax, antibiotic and antimycotics, 1× phosphate-buffered saline (PBS), 150×15 mm sterile culture dishes, sterile gauze 4×4, disposable safety scalpels, 4 mm disposable biopsy punch, 6-well cell-culture inserts, disinfected tweezers, cotton-tipped applicators, 6-well culture plates, ruled, disinfected cutting mat (12×12), scraper handle, tissue freezing medium, biopsy cassettes, frozen-tissue freezing vessels, 10% formalin, shipping containers for fixed tissue, and biohazard/sharps containers. Media was prepared in advance of the arrival of ex vivo skin. The skin arrived with the dermis (fat) side down on sterile DMEM soaked gauze in a sterile culture dish. The culture dish was taped shut and in a biohazard zip-lock baggie on an ice pack in a secondary container.
(§2) On arrival, the skin was removed from the bag and soaked in 3×DMEM media (3× refers to concentration of antibiotic and antimycotics) and stored at 4° C. for 1 hour. After 1 hour, the skin was removed from the 3×DMEM and rinsed with sterile 1×PBS. The skin was placed in a clean culture dish containing gauze soaked with 1×DMEM. The sample was put in culture the same day as arrival. If necessary, however, the ex vivo skin samples can be stored at 4° C. overnight.
In preparation for culture, the following was performed: on a cutting mat, the skin was flipped over so that the epidermis was down and the subcutis (fat) was exposed. The fat was removed with a disposable scalpel by carefully grasping one corner of the skin with sterile serrated forceps and scraping the fat away with the blade held at a 45° angle to the skin. After the fat was removed, the surgical edges were cut off with a scalpel using a scraper as a straight edge guide and to hold the skin in place. Using the scraper as a guide, the skin was cut into 1.25 cm (2×2 squares on grid) wide strips using a ruler to measure the width. The strip was rinsed in a 100 mm culture dish containing 1×PBS. The strips were cut into 1.25 cm^2 squares and placed in a 100 mm culture dish on 1×DMEM-soaked gauze until they were put into culture 30 minutes later.
Culture plates were prepared that included 2.5 ml of media or media with treatment (e.g., a candidate modulator, an inflammation inducer, and/or an inhibitor of inflammation) in each well of a 6-well plate. One Millicell culture insert was added to each well and 100 μl of 1× DMEM was put in the center of each insert membrane. Squares of skin tissue were selected randomly and placed into each of the inserts (one piece of skin per insert), on top of the media on the membrane. The plates were stored at 33° C., with fresh media changes daily. As a control, baseline tissue measurements were collected from excess waste (cryogenics were used for snap-freezing). Baseline biopsy collection included two 4 mm punches for an MTT colorimetric assay (described below); one 4 mm punch was snap-frozen in OCT tissue compound for fresh histology; one 4 mm punch was fixed in 10% formalin and sent out for paraffin embedding. Expression measurements of inflammation marker genes were performed using PCR and primers appropriate to the known sequence of the gene(s) of interest.
Culturing and treatment of the ex vivo skin model comprised replicates of n=5. Before experimental treatment, compounds (e.g., a candidate modulator, an inflammation inducer, or a suppressor of inflammation) were solubilized in appropriate solvents (including PBS, media, alcohol, and DMSO). Appropriate dilutions were made for treatment and 15 ml of media was used per plate per day for treatment, with 2.5 ml of media per well under the cell culture insert. Media was pre-warmed and changed every day during the experiment.

[2] = tested on: ex vivo human skin sample; experiment: Inducers of inflammation: inflammation marker secreted into the media by ex vivo skin samples (ELISA)
Source text: as §1, §2
In preparation for culture, the following was performed: on a cutting mat, the skin was flipped over so that the epidermis was down and the subcutis (fat) was exposed. The fat was removed with a disposable scalpel by carefully grasping one corner of the skin with sterile serrated forceps and scraping the fat away with the blade held at a 45° angle to the skin. After the fat was removed, the surgical edges were cut off with a scalpel using a scraper as a straight edge guide and to hold the skin in place. […]

[3] = tested on: ex vivo human skin sample; experiment: Histological analysis of ex vivo skin samples; conditions: IL-22 at 20 ng/mL, biopsied six days after treatment, vs untreated sample at 24 hours
Protocol: The first sample was analyzed 24 hours after being collected (i.e., biopsied) from an untreated ex vivo skin sample, and the second sample was collected (i.e., biopsied) from an ex vivo skin sample six days after the skin sample was treated with IL-22 at 20 ng/mL. […] Also consistent was the effect of 10 μM clobetasol in inhibiting inflammation, as measured by a reduction in marker gene expression. In particular, S100A7 was induced about 34-fold relative to untreated skin samples, with clobetasol leading to about 26-fold increase in expression relative to the untreated control. For IL-8, induction was about 16-fold and clobetasol reduced that to about 3-fold. For IL-6, induction was about 6-fold and clobetasol inhibited that value to about 0.3-fold relative to control values. For DEFB4, induction was about 800-fold and clobetasol reduced that increase to about 200-fold relative to controls.

“IL-1β: pro-inflammatory cytokine used as inducer of inflammation” was tested, and the “induction of inflammation in ex vivo skin samples, in words” value [1] was “shown to induce inflammation in ex vivo skin samples”, the “fold-change in IL-8 expression” value ([1]; 100 pg/ml IL-1β, after 1 day) was 3.28 fold and the “fold-change in TNF-α expression” value ([1]; 100 pg/ml IL-1β, after 1 day) was −1.21 fold. For the same molecule, the “fold-change in IL-8 expression” value ([1]; 100 pg/ml IL-1β, after 2 days) was 2.58 fold, the “fold-change in TNF-α expression” value ([1]; 100 pg/ml IL-1β, after 2 days) was 1.34 fold and the “fold-change in IL-8 expression” value ([1]; 100 pg/ml IL-1β, after 3 days) was 7.88 fold. The “fold-change in TNF-α expression” value ([1]; 100 pg/ml IL-1β, after 3 days) was 1.37 fold, the “fold-change in IL-8 expression” value ([1]; 100 pg/ml IL-1β, after 4 days) was 5.47 fold and the “fold-change in TNF-α expression” value ([1]; 100 pg/ml IL-1β, after 4 days) was 2.67 fold. For the same molecule, the “fold-change in IL-8 expression” value ([1]; 100 pg/ml IL-1β, after 6 days) was 2.42 fold, the “fold-change in TNF-α expression” value ([1]; 100 pg/ml IL-1β, after 6 days) was −1.29 fold and the “fold-change in IL-8 expression” value ([1]; 100 pg/ml IL-1β, after 10 days) was 9.02 fold. The “fold-change in TNF-α expression” value ([1]; 100 pg/ml IL-1β, after 10 days) was 1.19 fold, the “HMGCR expression relative to untreated controls, at termination” value ([1]; 100 pg/ml IL-1β, end of 10-day experiment) was “about 0.8 fold” and the “ceramide synthase 3, increase in expression” value ([1]; IL-1β, both 10 pg/ml and 100 pg/ml, day 10) was ~1.5 fold. The “TNF-α expression (amount of biomarker present in the media)” value ([2]; IL-1β 10 ng/ml on first four days of eight-day experiment, increase from about 65 pg/ml) was “about 120 pg/ml” and the “IL-6 expression (amount of biomarker present in the media)” value ([2]; IL-1β 10 ng/ml on first four days of eight-day experiment, increase from an average of about 8.2 ng/ml) was ≤ 12.3 ng/mL.

B1: IL-22: pro-inflammatory cytokine used as inducer of inflammation; also inducer of cell proliferation (protein, UniProt Q9GZX6 34-179, looked up)
Interleukin-22: APISSHCRLDKSNFQQPYITNRTFMLAKEASLADNNTDVRLIGEKLFHGVSMSERCYLMKQVLNFTLEEVLFPQSDRFQPYMQEVVPFLARLSNRLSTCHIEGDDLHIQRNVQKLKDTVKKLGESGEIKAIGELDLLFMSLRNACI
B1 was tested, and the “induction of inflammation in ex vivo skin samples, in words” value [1] was “shown to induce inflammation in ex vivo skin samples”, the “DEFB4 expression relative to an untreated ex vivo skin sample” value ([1]; 2 ng/ml IL-22) was 0.00 and the “KRT10 fold-expression level relative to an untreated ex vivo skin sample” value ([1]; 2 ng/ml IL-22) was “about 0.00 fold”. For the same molecule, the “DEFB4 expression relative to an untreated ex vivo skin sample” value ([1]; 20 ng/ml IL-22) was “about 3.00”, the “KRT10 fold-expression level relative to an untreated ex vivo skin sample” value ([1]; 20 ng/ml IL-22) was “about −3.00 fold” and the “DEFB4 expression relative to an untreated ex vivo skin sample” value ([1]; 200 ng/ml IL-22) was “about 20.00”. For the same molecule, the “KRT10 fold-expression level relative to an untreated ex vivo skin sample” value ([1]; 200 ng/ml IL-22) was “about −18.00 fold”, the “CALML5 Up-Down Regulation (relative to control)” value ([1]; 2 ng/ml) was 1.17* and the “DEFB4 Up-Down Regulation (relative to control)” value ([1]; 2 ng/ml) was −1.03. For the same molecule, the “FLG Up-Down Regulation (relative to control)” value ([1]; 2 ng/ml) was 1.28, the “IL-6 Up-Down Regulation (relative to control)” value ([1]; 2 ng/ml) was 1.35 and the “IL-8 Up-Down Regulation (relative to control)” value ([1]; 2 ng/ml) was 1.71*. The “KRT6A Up-Down Regulation (relative to control)” value ([1]; 2 ng/ml) was −1.16, the “KRT10 Up-Down Regulation (relative to control)” value ([1]; 2 ng/ml) was 1.40 and the “S100A7 Up-Down Regulation (relative to control)” value ([1]; 2 ng/ml) was 1.02. The “TNF-α Up-Down Regulation (relative to control)” value ([1]; 2 ng/ml) was 1.95*, the “CALML5 Up-Down Regulation (relative to control)” value ([1]; 20 ng/ml) was −2.29* and the “DEFB4 Up-Down Regulation (relative to control)” value ([1]; 20 ng/ml) was 2.69*. For the same molecule, the “FLG Up-Down Regulation (relative to control)” value ([1]; 20 ng/ml) was −10.55*, the “IL-6 Up-Down Regulation (relative to control)” value ([1]; 20 ng/ml) was 1.30 and the “IL-8 Up-Down Regulation (relative to control)” value ([1]; 20 ng/ml) was 1.43. For the same molecule, the “KRT6A Up-Down Regulation (relative to control)” value ([1]; 20 ng/ml) was 1.32, the “KRT10 Up-Down Regulation (relative to control)” value ([1]; 20 ng/ml) was −2.69* and the “S100A7 Up-Down Regulation (relative to control)” value ([1]; 20 ng/ml) was 2.04*. The “TNF-α Up-Down Regulation (relative to control)” value ([1]; 20 ng/ml) was 1.56*, the “CALML5 Up-Down Regulation (relative to control)” value ([1]; 200 ng/ml) was −4.61* and the “DEFB4 Up-Down Regulation (relative to control)” value ([1]; 200 ng/ml) was 20.23*. For the same molecule, the “FLG Up-Down Regulation (relative to control)” value ([1]; 200 ng/ml) was −13.37*, the “IL-6 Up-Down Regulation (relative to control)” value ([1]; 200 ng/ml) was 1.31 and the “IL-8 Up-Down Regulation (relative to control)” value ([1]; 200 ng/ml) was 1.72*. The “KRT6A Up-Down Regulation (relative to control)” value ([1]; 200 ng/ml) was 1.08, the “KRT10 Up-Down Regulation (relative to control)” value ([1]; 200 ng/ml) was −17.54* and the “TNF-α Up-Down Regulation (relative to control)” value ([1]; 200 ng/ml) was 1.33*. The “histology: skin cell proliferation (basal layer)” value [3] was “clearly exhibits a proliferative basal layer” and the “IL-8 secreted into the media” value ([2]; 20 ng/ml IL-22 only, day 4, untreated about 5,800 pg/ml) was “about 5,500 pg/ml”.
